Measurements from paper PMC2814163 (Biochemistry, 2010).
Positions count from the first letter of the chain named. Read-outs that look alike come from different tables or passages of the source.

B1: bovine prothrombin (natural protein)
chain: not shown
modifications: plasma-purified zymogen; gamma-carboxyglutamate in Gla domain, N-glycosylated, disulfides (by convention, not given)
B2: human β-glucuronidase (enzyme, UniProt P08236 23-651, looked up)
chain: LQGGMLYPQESPSRECKELDGLWSFRADFSDNRRRGFEEQWYRRPLWESGPTVDMPVPSSFNDISQDWRLRHFVGWVWYEREVILPERWTQDLRTRVVLRIGSAHSYAIVWVNGVDTLEHEGGYLPFEADISNLVQVGPLPSRLRITIAINNTLTPTTLPPGTIQYLTDTSKYPKGYFVQNTYFDFFNYAGLQRSVLLYTTPTTYIDDITVTTSVEQDSGLVNYQISVKGSNLFKLEVRLLDAENKVVANGTGTQGQLKVPGVSLWWPYLMHERPAYLYSLEVQLTAQTSLGPVSDFYTLPVGIRTVAVTKSQFLINGKPFYFHGVNKHEDADIRGKGFDWPLLVKDFNLLRWLGANAFRTSHYPYAEEVMQMCDRYGIVVIDECPGVGLALPQFFNNVSLHHHMQVMEEVVRRDKNHPAVVMWSVANEPASHLESAGYYLKMVIAHTKSLDPSRPVTFVSNSNYAADKGAPYVDVICLNSYYSWYHDYGHLELIQLQLATQFENWYKKYQKPIIQSEYGAETIAGFHQDPPLMFTEEYQKSLLEQYHLGLDQKRRKYVVGELIWNFADFMTEQSPTRVLGNKKGIFTRQRQPKSAAFLLRERYWKIANETRYPHSVAKSQCLENSLFT
modifications: mannose 6-phosphate on its glycans (Man-6-P-containing lysosomal enzyme; nonphosphorylated enzyme removed)
B3: Dom1-3His (extracytoplasmic domains 1-3 of the bovine CI-MPR, residues 1-432, C-terminal His6) (domain or fragment, UniProt P08169 45-476, looked up)
chain: AAGTQGAEFPELCSYTWEAVDTKNNMLYKINICGNMGVAQCGPSSAVCMHDLKTDSFHSVGDSLLKTASRSLLEFNTTVNCKQQNHKIQSSITFLCGKTLGTPEFVTATDCVHYFEWRTTAACKKNIFKANKEVPCYAFDRELKKHDLNPLIKTSGAYLVDDSDPDTSLFINVCRDIEVLRASSPQVRVCPTGAAACLVRGDRAFDVGRPQEGLKLVSNDRLVLSYVKEGAGQPDFCDGHSPAVTITFVCPSERREGTIPKLTAKSNCRFEIEWVTEYACHRDYLESRSCSLSSAQHDVAVDLQPLSRVEASDSLFYTSEADEYTYYLSICGGSQAPICNKKDAAVCQVKKADSTQVKVAGRPQNLTLRYSDGDLTLIYFGGEECSSGFQRMSVINFECNQTAGNNGRGAPVFTGEVDCTYFFTWDTKYACV
B4: Dom1-3HisK98A (domain or fragment, bovine, UniProt P08169 45-476, looked up)
chain: B3 chain with K98A
B5: Dom1-3HisK125A (domain or fragment, bovine, UniProt P08169 45-476, looked up)
chain: B3 chain with K125A
B6: Dom1-3HisR118A (domain or fragment, bovine, UniProt P08169 45-476, looked up)
chain: B3 chain with R118A
B7: Dom1-3HisK132A (domain or fragment, bovine, UniProt P08169 45-476, looked up)
chain: B3 chain with K132A
B8: Dom1-3HisK82A (domain or fragment, bovine, UniProt P08169 45-476, looked up)
chain: B3 chain with K82A
B9: Dom1-3HisK23A (domain or fragment, bovine, UniProt P08169 45-476, looked up)
chain: B3 chain with K23A
B10: Dom1-3HisK53A (domain or fragment, bovine, UniProt P08169 45-476, looked up)
chain: B3 chain with K53A
B11: Dom1-3HisK215A (domain or fragment, bovine, UniProt P08169 45-476, looked up)
chain: B3 chain with K215A

Assays:
Experiment in all cases: SPR
[1] = biological target: B3
[2] = biological target: soluble form of the cation-independent mannose 6-phosphate receptor isolated from fetal bovine serum (bovine, UniProt P08169 45-2313)
human β-glucuronidase [3] = biological target: B2
human prothrombin = human prothrombin (human, plasma-purified zymogen; gamma-carboxyglutamate in Gla domain, N-glycosylated, disulfides (by convention, not given))
human β-glucuronidase [4] = biological target: B2; remark: listed apart in the source

Row | Kd (human β-glucuronidase [4]) [nM] | Binder | further results
1 | – | B1 | Kd [1]: > 2500 nM
2 | – | B2 | Kd [2]: 22 ± 3 nM
3 | – | B3 | Kd (human β-glucuronidase [3]): 10 ± 2 nM; Kd (human prothrombin): > 2500 nM
4 | 17 ± 1 | B4 | –
5 | 26 ± 2 | B5 | –
6 | 12 ± 1 | B6 | –
7 | 35 ± 4 | B7 | –
8 | 17 ± 2 | B8 | –
9 | 14 ± 1 | B9 | –
10 | 17 ± 2 | B10 | –
11 | 18 ± 2 | B11 | –
